Laboratory results taken from patent US20150033371A1, “HAIR FOLLICLE STEM CELLS AND METHODS OF USE SAME” (University of Southern California, priority 2011, published 2015).

Legend:
[1] = published reports; cited from earlier work
[2] = DMSO; cited from earlier work
[3] = test system: hair germ; assay: subcutaneous injection of WNT activator 2 recombinant protein in mice, hair germ activation and hair cycle; assay type: in vivo; settings: for hair germ activation: mice (FIG. 12); for telogen to anagen transition: mice (FIG. 13)
Excerpt: To further investigate the effect of WNT activator 2 in hair germ activation, mice received subcutaneous injection of WNT activator 2 recombinant protein.

Row | Molecule | toxicity [1] | solubility [2] | hair germ activation [3] | hair germ activation ([3]; listed as WNT activator 2) | telogen to anagen transition [3] | telogen to anagen transition ([3]; listed as WNT activator 2)
1 | c1cc(-c2cnn3cc(-c4ccc(OCCN5CCCCC5)cc4)cnc23)ccn1 [Dorsomorphin] | low toxicity | soluble in DMSO | – | – | – | –
2 | WNT activator 2 recombinant protein: recombinant Wnt7a protein (wingless-type MMTV integration site family, member 7A), called WNT activator 2 (protein, UniProt O00755 32-349, looked up) Protein Wnt-7a: LGASIICNKIPGLAPRQRAICQSRPDAIIVIGEGSQMGLDECQFQFRNGRWNCSALGERTVFGKELKVGSREAAFTYAIIAAGVAHAITAACTQGNLSDCGCDKEKQGQYHRDEGWKWGGCSADIRYGIGFAKVFVDAREIKQNARTLMNLHNNEAGRKILEENMKLECKCHGVSGSCTTKTCWTTLPQFRELGYVLKDKYNEAVHVEPVRASRNKRPTFLKIKKPLSYRKPMDTDLVYIEKSPNYCEEDPVTGSVGTQGRACNKTAPQASGCDLMCCGRGYNTHQYARVWQCNCKFHWCCYVKCNTCSERTEMYTCK | – | – | induces precocious hair germ activation | induced precocious hair germ activation | promotes precocious telogen to anagen transition | promoted precocious telogen to anagen transition
